# According to US7375080B1, “Immobilized lactoferrin (Im-LF) antimicrobial agents and uses thereof” (priority 1999, dated 2008):
# Values joined by “and” are separate entries in the source; they are usually repeats but may differ in a detail not shown here. Equal entries are not always repeated.
# Legend:
# [1] = system: E. coli serotype O157:H7 (strain ATCC43895); type: cell-based
# [2] = system: E. coli O157:H7 strain ATCC43895; assay: Microbial adhesion assay: detachment of 3H-thymidine labeled bacteria from beef tissue by wash; type: cell-based
molecule,measurement,setting,value
"lactoferrin (protein, UniProt P24627 20-708, looked up) Lactotransferrin: APRKNVRWCTISQPEWFKCRRWQWRMKKLGAPSITCVRRAFALECIRAIAEKKADAVTLDGGMVFEAGRDPYKLRPVAAEIYGTKESPQTHYYAVAVVKKGSNFQLDQLQGRKSCHTGLGRSAGWIIPMGILRPYLSWTESLEPLQGAVAKFFSASCVPCIDRQAYPNLCQLCKGEGENQCACSSREPYFGYSGAFKCLQDGAGDVAFVKETTVFENLPEKADRDQYELLCLNNSRAPVDAFKECHLAQVPSHAVVARSVDGKEDLIWKLLSKAQEKFGKNKSRSFQLFGSPPGQRDLLFKDSALGFLRIPSKVDSALYLGSRYLTTLKNLRETAEEVKARYTRVVWCAVGPEEQKKCQQWSQQSGQNVTCATASTTDDCIVLVLKGEADALNLDGGYIYTAGKCGLVPVLAENRKSSKHSSLDCVLRPTEGYLAVAVVKKANEGLTWNSLKDKKSCHTAVDRTAGWNIPMGLIVNQTGSCAFDEFFSQSCAPGADPKSRLCALCAGDDQGLDKCVPNSKEKYYGYTGAFRCLAEDVGDVAFVKNDTVWENTNGESTADWAKNLNREDFRLLCLDGTRKPVTEAQSCHLAVAPNHAVVSRSDRAAHVKQVLLHQQALFGKNGKNCPDKFCLFKSETKNLLFNDNTECLAKLGGRPTYEEYLGTEYVTAIANLKKCSTSPLLEACAFLTR",GROWTH (%),[1],36%
same,effect on growth of the E. coli,[1],reduced the growth
same,% BACTERIAL CELLS DETACHED IN 1-MINUTE,[2],90% and 85% and 78%
same,bacterial detachment,[2],effective bacterial detachment
